Results as given in PMC11472046.

Key:
[1] = target: H3K9me3 mononucleosome; assay: native gel or EMSA; varying concentrations of Chp2 with 50 nM mononucleosomes; 20 mM HEPES pH 7.5, 4 mM Tris, 80 mM KCl, 0.1% Igepal CA-630, 0.2 mM EDTA, 2 mM DTT, 10% glycerol; 4°C, 30 min; unbound nucleosome band quantified; apparent affinity (K1/2)
[2] = target: H3K9 methylated (H3K9me) histones in chromatin (S. pombe (endogenous in S. pombe cells)); assay: live-cell single-molecule time-lapse imaging; as a4, but PAmCherry-Chp2-low in swi6Δ cells
[3] = target: H3K9 methylated (H3K9me) histones in chromatin (S. pombe (endogenous in S. pombe cells)); assay: live-cell single-molecule tracking (NOBIAS mobility states, Bayesian Synthetic Likelihood rate inference); as a2, but PAmCherry-Chp2 expressed from the nmt41 promoter (5x higher level)
[4] = target: H3K9 methylated (H3K9me) histones in chromatin (S. pombe (endogenous in S. pombe cells)); assay: live-cell single-molecule tracking (NOBIAS mobility states, Bayesian Synthetic Likelihood rate inference); PAmCherry-tagged protein photoactivated and tracked in the nucleus of living S. pombe, 40-ms frames, room temperature; Chp2 from the nmt81 promoter, Epe1 from its own or the nmt1 promoter; WT cells, with clr4Δ and swi6Δ cells as comparison
[5] = target: H3K9 methylated (H3K9me) histones in chromatin (S. pombe (endogenous in S. pombe cells)); assay: live-cell single-molecule time-lapse imaging; residence times of stationary PAmCherry-tagged molecules in living WT S. pombe; 200-ms integration time with different dark delay times; kdiss from a linear fit that separates photobleaching
[6] = target: H3K9 methylated (H3K9me) histones in chromatin (S. pombe (endogenous in S. pombe cells)); assay: as above; remark: listed apart in the source

Chain of PAmCherry-Swi6 (P40381 whole entry): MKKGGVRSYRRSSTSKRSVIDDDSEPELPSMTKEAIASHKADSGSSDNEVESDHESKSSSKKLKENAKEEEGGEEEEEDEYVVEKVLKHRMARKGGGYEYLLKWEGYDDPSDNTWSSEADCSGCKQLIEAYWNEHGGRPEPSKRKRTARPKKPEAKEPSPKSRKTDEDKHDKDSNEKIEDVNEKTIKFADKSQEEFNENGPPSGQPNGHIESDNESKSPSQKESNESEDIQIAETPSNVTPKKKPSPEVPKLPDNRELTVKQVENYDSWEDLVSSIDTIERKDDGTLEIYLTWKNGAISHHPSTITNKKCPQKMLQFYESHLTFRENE
Chain of PAmCherry-Chp2 (O42934 whole entry): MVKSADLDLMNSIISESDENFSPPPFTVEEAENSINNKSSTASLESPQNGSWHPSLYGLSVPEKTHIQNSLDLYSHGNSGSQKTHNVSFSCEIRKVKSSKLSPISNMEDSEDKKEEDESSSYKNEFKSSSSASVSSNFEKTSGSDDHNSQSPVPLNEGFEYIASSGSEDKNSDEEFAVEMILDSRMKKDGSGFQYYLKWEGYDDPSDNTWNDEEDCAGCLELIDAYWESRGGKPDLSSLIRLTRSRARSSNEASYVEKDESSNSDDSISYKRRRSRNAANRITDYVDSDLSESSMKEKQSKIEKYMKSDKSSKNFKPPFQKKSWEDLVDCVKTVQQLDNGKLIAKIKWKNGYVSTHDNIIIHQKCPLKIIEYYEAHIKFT
Chain of Chp2-WT (recombinant) (O42934 whole entry): as above

Row | weight fraction of the low mobility (H3K9me-bound) state [4] | average dwell time [5] | koff [5] | Substance | other results
1 | – | – | – | Chp2-WT (recombinant) (from UniProt O42934 1-380) (natural protein) | specificity for H3K9me over H3K9me0 nucleosomes [1]: 2 fold
2 | > 92% | 3.85 s | 0.26 s⁻¹ | PAmCherry-Chp2 (from UniProt O42934 1-380) (natural protein) | average dwell time [2]: 3.72 s; koff [2]: 0.269 s⁻¹; weight fraction of the low mobility (H3K9me-bound) state [3]: > 90%; koff [4]: 0.479 s⁻¹
3 | 10% | – | – | PAmCherry-Chp2 W199A (from UniProt O42934 1-380) (natural protein) | –
4 | – | 2.2 s | 0.454 s⁻¹ | PAmCherry-Swi6 (from UniProt P40381 1-328) (natural protein) | average dwell time [6]: 2.22 s
